The target of this data set is apolipoprotein A-I (lipid-free) (Homo sapiens, UniProt P02647 25-267). In words: MST; Kd only in figure; MST: 100 nM AF647 oligo (90 C 2 min, cooled) mixed 1:1 with ligand in PBS, RT, 5 min; EMSA: 1 uM AF546 oligo, UV 254 nm 15 min on ice, 4-16% NativePAGE, 0.5x TBE. Conditions: protein: native; label: 3' Alexa Fluor 647.
Sequence of apolipoprotein A-I (lipid-free) (P02647 25-267): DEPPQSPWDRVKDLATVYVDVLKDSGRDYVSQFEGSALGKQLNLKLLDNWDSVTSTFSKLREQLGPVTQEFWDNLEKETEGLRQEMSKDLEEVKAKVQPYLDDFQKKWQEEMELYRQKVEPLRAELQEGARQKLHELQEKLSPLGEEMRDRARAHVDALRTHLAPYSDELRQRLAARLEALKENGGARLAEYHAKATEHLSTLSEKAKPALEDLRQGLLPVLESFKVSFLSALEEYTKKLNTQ

B1: tDR-GluCTC-30 (ssRNA)
RNA: CCUGGUGGUCUAGUGGUUAGGAUUCGGCGC
Consider B1, for which the binding result was “binds”.

B2: miR-223-3p (ssRNA)
RNA: UGUCAGUUUGUCAAAUACCCCA
With B2, the binding result was “binds”.

B3: miR-375-3p (ssRNA)
RNA: UUUGUUCGUUCGGCUCGCGUGA
As to B3, the binding result is listed as “binds”.

The values above are taken from publication PMC9133651, “Elucidation of physico-chemical principles of high-density lipoprotein–small RNA binding interactions”.
